According to patent US20080219985A1 (published 2008):
Values joined by “and” are separate entries in the source; they are usually repeats but may differ in a detail not shown here. Equal entries are not always repeated. Where two headings read alike, the source gives them in different places.

What was measured:
GPCR73a receptor [1] = target: T1, GPCR73a receptor (human, UniProt Q8TCW9 1-393); assay: cell-based or functional assay
GPCR73a receptor [2] = target: T1, GPCR73a receptor; assay: cell-based or functional assay; remark: listed apart in the source
GPCR73b receptor [3] = target: T2, GPCR73b receptor (Homo sapiens (Human), UniProt Q8NFJ6 1-384); assay: cell-based or functional assay
GPCR73b receptor [4] = target: T2, GPCR73b receptor; assay: cell-based or functional assay; remark: listed apart in the source
[5] = target: PROK2 receptor on 4T1.2 murine breast cancer cells (mouse); assay: cell-based or functional assay
[6] = target: T3, PROK2 receptor on Wky12-22 cells (rat aortic smooth muscle cells) (rat); assay: cell-based or functional assay
GPCR73a receptor [7] = target: T1, GPCR73a receptor; assay: cell-based or functional assay; remark: listed apart in the source
[8] = target: T3, PROK2 receptor on Wky12-22 cells (rat …); assay: saturation binding of I-125 PROK2 to Wky12-22 cell monolayers at 4 C, two-site nonlinear regression, low affinity site
Protocol: (§1) The binding of PROK2 to Wky12-22 cells was assessed using I¹²⁵-radiolabeled PROK2. Wky12-22 cells were seeded at low cell density and cultured for three to four days until they reached about 70% confluency. The cells were placed on ice, the medium was removed, and the monolayers were washed. The cells were incubated with increasing amounts of I¹²⁵-PROK2 in the absence (total binding) and presence (nonspecific binding) of a large excess of unlabeled PROK2. After various times at 4° C., the binding media were removed, the monolayers were washed, and the cells were solubilized with a small volume of 1.0 N NaOH. Cell associated radioactivity was determined in a gamma counter. The specific binding of I¹²⁵-PROK2 was calculated as the difference between the total and nonspecific values. The measured radioacitivity was normalized to cell number that was determined on a set of parallel cultures. Nonlinear regression using a two-site model was used to fit the binding data for determination of Kd and Bmax.

[9] = target: T3, PROK2 receptor on Wky12-22 cells (rat …); assay: saturation binding of I-125 PROK2 to Wky12-22 cell monolayers at 4 C, two-site nonlinear regression, high affinity site
Protocol: as §1

T1 sequence (Q8TCW9 whole entry): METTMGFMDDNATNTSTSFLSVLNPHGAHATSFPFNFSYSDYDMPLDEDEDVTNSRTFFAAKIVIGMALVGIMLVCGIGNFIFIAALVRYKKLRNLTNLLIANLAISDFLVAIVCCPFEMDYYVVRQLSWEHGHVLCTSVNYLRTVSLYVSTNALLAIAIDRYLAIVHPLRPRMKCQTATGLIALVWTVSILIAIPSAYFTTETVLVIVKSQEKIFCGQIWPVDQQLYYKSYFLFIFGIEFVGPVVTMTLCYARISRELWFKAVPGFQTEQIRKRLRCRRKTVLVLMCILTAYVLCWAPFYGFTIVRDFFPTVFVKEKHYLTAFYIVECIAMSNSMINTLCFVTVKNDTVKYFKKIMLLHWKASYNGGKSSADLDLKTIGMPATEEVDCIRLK
T2 sequence (Q8NFJ6 whole entry): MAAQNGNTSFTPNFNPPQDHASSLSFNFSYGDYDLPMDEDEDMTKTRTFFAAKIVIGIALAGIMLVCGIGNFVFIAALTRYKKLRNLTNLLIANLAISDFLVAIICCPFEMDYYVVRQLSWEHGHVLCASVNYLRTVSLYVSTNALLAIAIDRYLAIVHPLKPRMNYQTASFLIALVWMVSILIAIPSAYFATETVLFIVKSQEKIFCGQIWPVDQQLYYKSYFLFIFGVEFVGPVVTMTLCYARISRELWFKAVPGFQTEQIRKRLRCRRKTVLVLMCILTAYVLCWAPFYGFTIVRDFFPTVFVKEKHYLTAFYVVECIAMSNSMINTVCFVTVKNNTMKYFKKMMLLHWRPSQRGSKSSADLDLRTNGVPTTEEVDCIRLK
T3 sequence (Q4AEG4 whole entry): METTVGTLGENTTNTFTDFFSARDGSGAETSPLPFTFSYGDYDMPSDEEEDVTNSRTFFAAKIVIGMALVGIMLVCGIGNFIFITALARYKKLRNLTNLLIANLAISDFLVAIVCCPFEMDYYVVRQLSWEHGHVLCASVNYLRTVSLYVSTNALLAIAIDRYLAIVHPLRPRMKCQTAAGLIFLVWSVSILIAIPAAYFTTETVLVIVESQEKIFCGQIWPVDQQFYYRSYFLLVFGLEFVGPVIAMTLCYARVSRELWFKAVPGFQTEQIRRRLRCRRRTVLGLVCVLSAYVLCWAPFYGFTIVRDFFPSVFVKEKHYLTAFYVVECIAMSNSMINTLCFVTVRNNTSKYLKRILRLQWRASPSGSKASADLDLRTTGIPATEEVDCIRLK

B1: human PROK2 produced in E. coli (in house) (ligand)
chain: AVITGACDKDSQCGGGMCCAVSIWVKSIRICTPMGKLGDSCHPLTRKVPFFGRRMHHTCPCLPGLACLRTSFNRFICLAQK
For B1, the “SRE-luciferase fold-induction at 1 ng/ml” value (GPCR73a receptor [1]) was 1.9 fold-induction, the “SRE-luciferase fold-induction at 3.2 ng/ml” value (GPCR73a receptor [1]) was 4 fold-induction and the “SRE-luciferase fold-induction at 10 ng/ml” value (GPCR73a receptor [1]) was 8.4 fold-induction. For the same binder, the “SRE-luciferase fold-induction at 32 ng/ml” value (GPCR73a receptor [1]) was 15 fold-induction, the “SRE-luciferase fold-induction at 100 ng/ml” value (GPCR73a receptor [1]) was 19 fold-induction and the “SRE-luciferase fold-induction at 320 ng/ml” value (GPCR73a receptor [1]) was 20.7 fold-induction. For the same binder, the “SRE-luciferase fold-induction at 1000 ng/ml” value (GPCR73a receptor [1]) was 17.8 fold-induction, the “SRE-luciferase fold-induction at 1 ng/ml” value (GPCR73a receptor [2]) was 4.1 fold-induction and the “SRE-luciferase fold-induction at 3.2 ng/ml” value (GPCR73a receptor [2]) was 7.6 fold-induction. The “SRE-luciferase fold-induction at 10 ng/ml” value (GPCR73a receptor [2]) was 10.2 fold-induction, the “SRE-luciferase fold-induction at 32 ng/ml” value (GPCR73a receptor [2]) was 14.1 fold-induction and the “SRE-luciferase fold-induction at 100 ng/ml” value (GPCR73a receptor [2]) was 17.6 fold-induction. The “SRE-luciferase fold-induction at 320 ng/ml” value (GPCR73a receptor [2]) was 22 fold-induction, the “SRE-luciferase fold-induction at 1000 ng/ml” value (GPCR73a receptor [2]) was 13.9 fold-induction and the “SRE-luciferase fold-induction at 1 ng/ml” value (GPCR73b receptor [3]) was 0.7 fold-induction. The “SRE-luciferase fold-induction at 3.2 ng/ml” value (GPCR73b receptor [3]) was 1.3 fold-induction, the “SRE-luciferase fold-induction at 10 ng/ml” value (GPCR73b receptor [3]) was 1.9 fold-induction and the “SRE-luciferase fold-induction at 32 ng/ml” value (GPCR73b receptor [3]) was 3 fold-induction. The “SRE-luciferase fold-induction at 100 ng/ml” value (GPCR73b receptor [3]) was 4.7 fold-induction, the “SRE-luciferase fold-induction at 320 ng/ml” value (GPCR73b receptor [3]) was 6.3 fold-induction and the “SRE-luciferase fold-induction at 1000 ng/ml” value (GPCR73b receptor [3]) was 7.1 fold-induction. For the same binder, the “SRE-luciferase fold-induction at 1 ng/ml” value (GPCR73b receptor [4]) was 1 fold-induction, the “SRE-luciferase fold-induction at 3.2 ng/ml” value (GPCR73b receptor [4]) was 1.2 fold-induction and the “SRE-luciferase fold-induction at 10 ng/ml” value (GPCR73b receptor [4]) was 1.7 fold-induction. The “SRE-luciferase fold-induction at 32 ng/ml” value (GPCR73b receptor [4]) was 2.6 fold-induction, the “SRE-luciferase fold-induction at 100 ng/ml” value (GPCR73b receptor [4]) was 4.4 fold-induction and the “SRE-luciferase fold-induction at 320 ng/ml” value (GPCR73b receptor [4]) was 5.2 fold-induction. The “SRE-luciferase fold-induction at 1000 ng/ml” value (GPCR73b receptor [4]) was 4.8 fold-induction.

B2: human PROK2 (preparation not stated for the assay) (ligand)
chain: B1 chain
With B2 the “ERK phosphorylation in 4T1.2 cells (BIO-PLEX phospho-protein assay), maximal at 100 ng/ml PROK2” value [5] was 1.8 fold, the “ERK 1/2 phosphorylation in Wky12-22 cells, 15 minutes after 100 ng/ml PROK2” value [6] was 11 fold induction over basal and the “JNK phosphorylation in Wky12-22 cells, 15 minutes after 100 ng/ml PROK2” value [6] was 3 fold.

B3: human PROK2 with a carboxy-terminal Glu-Glu tag, produced in baculovirus (PROK2cee) (ligand)
chain: AVITGACDKDSQCGGGMCCAVSIWVKSIRICTPMGKLGDSCHPLTRKVPFFGRRMHHTCPCLPGLACLRTSFNRFICLAQKGLEYMPMD
notes: also called huPROK2-CEE-Bv; Baculovirus-expressed PROK2
With B3 the “EC50 of ERK-Map kinase activity in Wky12-22 cells” value [6] was 0.5 nM and ~5 ng/ml, the “SRE-luciferase fold-induction at 1 ng/ml, PROK2 heated at 56 C for 30 minutes” value (GPCR73a receptor [7]) was 1.8 fold-induction and the “SRE-luciferase fold-induction at 1 ng/ml, fresh PROK2” value (GPCR73a receptor [7]) was 2.5 fold-induction. For the same binder, the “SRE-luciferase fold-induction at 3.2 ng/ml, PROK2 heated at 56 C for 30 minutes” value (GPCR73a receptor [7]) was 3.7 fold-induction, the “SRE-luciferase fold-induction at 3.2 ng/ml, fresh PROK2” value (GPCR73a receptor [7]) was 7.1 fold-induction and the “SRE-luciferase fold-induction at 10 ng/ml, PROK2 heated at 56 C for 30 minutes” value (GPCR73a receptor [7]) was 10 fold-induction. The “SRE-luciferase fold-induction at 10 ng/ml, fresh PROK2” value (GPCR73a receptor [7]) was 13.1 fold-induction, the “SRE-luciferase fold-induction at 32 ng/ml, PROK2 heated at 56 C for 30 minutes” value (GPCR73a receptor [7]) was 14.8 fold-induction and the “SRE-luciferase fold-induction at 32 ng/ml, fresh PROK2” value (GPCR73a receptor [7]) was 18.7 fold-induction. The “SRE-luciferase fold-induction at 100 ng/ml, PROK2 heated at 56 C for 30 minutes” value (GPCR73a receptor [7]) was 18.6 fold-induction, the “SRE-luciferase fold-induction at 100 ng/ml, fresh PROK2” value (GPCR73a receptor [7]) was 20.5 fold-induction and the Kd [8] was 31 nM. The Kd [9] was 1.5 nM.
